Source: publication PMC3433420, “Comprehensive Binary Interaction Mapping of SH2 Domains via Fluorescence Polarization Reveals Novel Functional Diversification of ErbB Receptors” (PLoS ONE, 2012)
“And” between values parts separate entries of the source, which are not always exact repeats. Identical values can stand only once. Non-standard residues stand in square brackets, D forms with d. No end group written: not given here. pY = N[C@@H](Cc1ccc(OP(=O)(O)O)cc1)C(=O)O; Rhodamine = not defined here

Assays:
[1] = target: T1, PTPN11 tandem SH2 domains (human); test: peptide or protein array; SH2/PTB proteins spotted on aldehyde slides, rhodamine peptide titrated in buffer B (20 mM HEPES, 100 mM KCl, 0.1% Tween-20, 5 mM DTT, pH 7.8), 1 h at room temperature; replicate assays; conditions: both partners purified
T1 construct: PTPN11, human; also called PTPN11-NC; source: bacterial expression, purified
T1 sequence (Q06124 whole entry, looked up): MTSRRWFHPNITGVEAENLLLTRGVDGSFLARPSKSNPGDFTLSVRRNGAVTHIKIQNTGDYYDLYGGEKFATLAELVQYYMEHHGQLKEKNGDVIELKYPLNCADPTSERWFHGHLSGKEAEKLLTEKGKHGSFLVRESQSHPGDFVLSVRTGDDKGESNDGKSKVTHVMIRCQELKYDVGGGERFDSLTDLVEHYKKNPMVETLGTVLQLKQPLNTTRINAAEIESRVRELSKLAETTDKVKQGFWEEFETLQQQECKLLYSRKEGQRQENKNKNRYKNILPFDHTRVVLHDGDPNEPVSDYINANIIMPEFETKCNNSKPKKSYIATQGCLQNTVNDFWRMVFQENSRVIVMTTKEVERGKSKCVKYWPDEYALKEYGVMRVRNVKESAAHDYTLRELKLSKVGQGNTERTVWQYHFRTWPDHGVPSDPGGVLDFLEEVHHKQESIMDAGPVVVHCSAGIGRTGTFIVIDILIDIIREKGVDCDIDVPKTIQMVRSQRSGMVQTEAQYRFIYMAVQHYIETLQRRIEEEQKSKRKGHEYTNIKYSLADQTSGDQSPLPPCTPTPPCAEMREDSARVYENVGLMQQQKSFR

SHF SH2 domain = target: T2, SHF SH2 domain (human, UniProt Q7M4L6 323-418); test: as above; conditions: both partners purified
T2 construct: SHF, human; source: bacterial expression, purified
T2 sequence (looked up): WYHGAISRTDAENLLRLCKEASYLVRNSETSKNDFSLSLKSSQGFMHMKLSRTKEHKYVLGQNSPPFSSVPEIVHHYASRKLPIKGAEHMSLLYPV

Rhodamine-ETDG[pY]VAPLTCSD (reading uncertain) [ErbB2 pY1127 phosphopeptide, rhodamine-labelled, for protein microarrays]
Kd [1]: 1150 nM and 1530 nM
Kd (SHF SH2 domain): 1020 nM
